Assays:
human CXCR4 [1] = target: T1, human CXCR4 (human, UniProt P61073 1-352); assay: flow cytometry on human CXCR4
T1 construct: whole, on cells; Tested by flow cytometry; also called human C-X-C Motif Chemokine Receptor 4
Text: (§1) Fab phage libraries were panned on mouse CXCR4 lipoparticles. Clones were screened by lipoparticle ELISA. Binders were sequenced and grouped into families based on CDR3 homology. Fab from three VHCDR3 families were validated by flow cytometry using HEK293 cells expressing natively folded mouse CXCR4. These families were subsequently tested for binding to human CXCR4 by flow cytometry. The positive clones were recloned into IgG format according to standard methods. Three VHCDR3 families were identified that are crossreactive with human and mouse CXCR4. The amino acid sequences of the heavy chain variable region of the mouse and human CXCR4 binding antibodies are set forth in SEQ Nos: 31, 32 and 33.

[2] = target: T2, mouse CXCR4 (wildtype full length) (mouse, UniProt P70658 1-359); assay: flow cytometry, Fab on HEK293 cells expressing natively folded mouse CXCR4
T2 construct: Natively folded mouse CXCR4 expressed on HEK293 cells for flow cytometry
Text: as §1

human CXCR4 [3] = target: T1, human CXCR4; assay: figure legend (flow cytometry of Example 10)
Text: as §1

[4] = target: T2, mouse CXCR4 (wildtype full length); assay: figure legend (flow cytometry of Example 10)
Text: as §1

T2 sequence (P70658 whole entry): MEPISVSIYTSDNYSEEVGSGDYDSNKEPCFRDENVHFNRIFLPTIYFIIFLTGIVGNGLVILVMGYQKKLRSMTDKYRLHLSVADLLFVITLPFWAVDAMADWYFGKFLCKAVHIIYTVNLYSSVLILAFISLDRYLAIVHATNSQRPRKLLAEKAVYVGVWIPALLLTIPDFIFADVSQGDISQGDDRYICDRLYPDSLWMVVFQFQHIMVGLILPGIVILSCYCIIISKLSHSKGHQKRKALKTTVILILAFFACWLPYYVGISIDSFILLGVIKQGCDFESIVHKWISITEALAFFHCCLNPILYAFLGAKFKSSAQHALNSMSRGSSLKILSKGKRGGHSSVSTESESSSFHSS
T1 sequence (P61073 whole entry): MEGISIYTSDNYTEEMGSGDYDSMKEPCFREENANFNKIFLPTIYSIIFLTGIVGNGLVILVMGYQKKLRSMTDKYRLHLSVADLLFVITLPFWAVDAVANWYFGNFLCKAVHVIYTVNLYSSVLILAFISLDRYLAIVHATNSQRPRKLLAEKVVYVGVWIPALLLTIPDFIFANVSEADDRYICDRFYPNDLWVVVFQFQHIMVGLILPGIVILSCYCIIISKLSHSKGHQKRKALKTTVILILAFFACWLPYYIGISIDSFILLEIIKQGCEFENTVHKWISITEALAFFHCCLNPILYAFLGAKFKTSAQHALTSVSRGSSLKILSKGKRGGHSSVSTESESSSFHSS

B1: CXCR4-1 (first chimeric Fab comprising a chicken VH paired with a human VL that binds to mouse and human CXCR4) (Fab, V domains shown)
VH: AVTLDESGGGLQTPGGALSLVCKASGFTFSSYRGMHWVRQAPGKGLEWVAGIYSSGSSTAYGAAVKGRATISRDDGQSTVRLQLNNLRAEDTGTYYCAKDAGSCWYGRRSGFNCDPYGGNIDAWGHGTEVIVSS
VL: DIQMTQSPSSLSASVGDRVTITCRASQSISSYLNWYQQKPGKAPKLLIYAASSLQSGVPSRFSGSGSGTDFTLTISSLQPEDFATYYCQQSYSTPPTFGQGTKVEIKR
notes: Positive clones were later recloned into IgG format; also called chicken VH-human VL Fab
B1: binds (human CXCR4 [1]); binds [2].

B2: CXCR4-2 (second chimeric Fab comprising a chicken VH paired with a human VL that binds to mouse and human CXCR4) (Fab, V domains shown)
VH: AVTLDESGGGLQTPGGALSLVCKASGFSFSSYDMSWVRQAPGKGLEWVAGIYSIGRDAGYGAAVKGRATISRDNGQSTVRLQLNNLRAEDTGTYYCAKESGSACRYAARHGYICAGYLGSIDAWGHGTEVIVSS
VL: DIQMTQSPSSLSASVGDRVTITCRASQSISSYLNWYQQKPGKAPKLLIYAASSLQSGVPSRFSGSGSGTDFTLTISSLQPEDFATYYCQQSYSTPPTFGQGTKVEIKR
notes: as for B1
B2: binds (human CXCR4 [3]); binds [2].

B3: CXCR4-3 (third chimeric Fab comprising a chicken VH paired with a human VL that binds to mouse and human CXCR4) (Fab, V domains shown)
VH: AVTLDESGGGLQTPGGALSLVCKASGFSIGSYGMGWVRQAPGKGLEFVAGISTIGGVTWYGAAVKGRAIISRDNGQSTVRLQLNNLRAEDTGTYFCAKASDSPSCRYGSRSGWSCPGWNYGGRIDAWGHGTEVIVSS
VL: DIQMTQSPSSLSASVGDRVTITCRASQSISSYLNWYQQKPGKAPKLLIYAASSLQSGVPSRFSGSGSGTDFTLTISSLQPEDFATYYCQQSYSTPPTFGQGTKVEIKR
notes: as for B1
B3: binds [4]; binds (human CXCR4 [3]).
